Experimental data from PMC10397247.

Tests used:
Assay in all cases: two-hybrid library CCNG1;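 note: natural log of median RNA to DNA barcode read ratio; higher means stronger binding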
[1] = biological target: T1, 4H953-bH
T1 chain: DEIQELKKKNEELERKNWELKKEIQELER

[2] = biological target: T2, 4H967-bH
T2 chain: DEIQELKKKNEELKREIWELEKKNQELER

[3] = biological target: T3, 4H3112-bH
T3 chain: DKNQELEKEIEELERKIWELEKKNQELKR

[4] = biological target: T4, 4H4001-bH
T4 chain: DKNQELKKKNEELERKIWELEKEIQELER

[5] = biological target: T5, 4H331-bH
T5 chain: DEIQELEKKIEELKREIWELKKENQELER

[6] = biological target: T6, 4H72-bH
T6 chain: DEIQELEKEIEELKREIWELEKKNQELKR

[7] = biological target: T7, 4H3354-bH
T7 chain: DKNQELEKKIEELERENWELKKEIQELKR

[8] = biological target: T8, 4H2729-bH
T8 chain: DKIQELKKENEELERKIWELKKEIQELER

[9] = biological target: T9, 4H797-bH
T9 chain: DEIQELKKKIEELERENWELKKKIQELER

[10] = biological target: T10, 4H2576-bH
T10 chain: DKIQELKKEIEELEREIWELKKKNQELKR

[11] = biological target: T11, 4H2442-bH
T11 chain: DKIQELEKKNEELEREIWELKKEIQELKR

[12] = biological target: T12, 4H454-bH
T12 chain: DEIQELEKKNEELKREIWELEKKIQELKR

[13] = biological target: T13, 4H3185-bH
T13 chain: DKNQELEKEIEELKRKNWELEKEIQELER

[14] = biological target: T14, 4H568-bH
T14 chain: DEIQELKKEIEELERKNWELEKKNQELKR

[15] = biological target: T15, 4H918-bH
T15 chain: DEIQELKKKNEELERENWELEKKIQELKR

[16] = biological target: T16, 4H883-bH
T16 chain: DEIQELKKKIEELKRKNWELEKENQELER

[17] = biological target: T17, 4H3907-bA
T17 chain: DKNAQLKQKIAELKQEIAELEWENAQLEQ

[18] = biological target: T18, 4H3855-bH
T18 chain: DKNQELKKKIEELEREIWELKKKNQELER

[19] = biological target: T19, 4H2618-bH
T19 chain: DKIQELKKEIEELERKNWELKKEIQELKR

[20] = biological target: T20, 4H687-bH
T20 chain: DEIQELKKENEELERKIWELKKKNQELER

[21] = biological target: T21, 4H754-bH
T21 chain: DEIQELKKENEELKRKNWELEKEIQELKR

[22] = biological target: T22, 4H338-bH
T22 chain: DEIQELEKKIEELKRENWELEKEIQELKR

[23] = biological target: T23, 4H3782-bH
T23 chain: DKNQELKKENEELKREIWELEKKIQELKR

[24] = biological target: T24, 4H2667-bH
T24 chain: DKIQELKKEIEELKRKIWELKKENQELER

[25] = biological target: T25, 4H575-bH; details: mean of both orientations
T25 chain: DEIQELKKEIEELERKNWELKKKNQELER

[26] = biological target: T26, 4H717-bH
T26 chain: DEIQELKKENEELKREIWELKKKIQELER

[27] = biological target: T27, 4H883-bA
T27 chain: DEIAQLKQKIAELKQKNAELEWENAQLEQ

[28] = biological target: T28, 4H908-bH
T28 chain: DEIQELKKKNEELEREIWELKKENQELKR

[29] = biological target: T29, 4H3427-bH
T29 chain: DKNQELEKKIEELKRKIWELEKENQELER

interaction score [1]: 0.587 | interaction score [2]: 0.424 | interaction score [3]: -0.123 | interaction score [4]: -0.244 | interaction score [5]: -0.168 | interaction score [6]: -2.01 | interaction score [7]: 0.0703 | interaction score [8]: 1.77 | interaction score [9]: -0.629 | interaction score [10]: 0.27 | interaction score [11]: 1.25 | interaction score [12]: 1.64 | interaction score [13]: -0.571 | interaction score [14]: -0.0562 | interaction score [15]: -0.517 | interaction score [16]: 0.442 | interaction score [17]: -1.28 | interaction score [18]: -1.1 | interaction score [19]: 1.93 | interaction score [20]: -0.163 | interaction score [21]: -0.751 | interaction score [22]: 0.526 | interaction score [23]: -0.566 | interaction score [24]: -0.37 | interaction score [25]: 0.167 | interaction score [26]: 0.313 | interaction score [27]: -2.1 | interaction score [28]: -0.628 | interaction score [29]: -0.00664
Binder: DKIQELEKKNEELEREIWELKKEIQELKR [4H2442-bH]
